# Measured values: patent publication US20150203579A1 (Regeneron, published 2015)
# T1: recombinant cynomolgus monkey PD-1 expressed with a C-terminal myc-myc-hexahistidine tag (cynomolgus monkey (Macaca fascicularis))
# T1 construct: Monomeric reagent; also called MfPD-1-MMH
# T1 chain: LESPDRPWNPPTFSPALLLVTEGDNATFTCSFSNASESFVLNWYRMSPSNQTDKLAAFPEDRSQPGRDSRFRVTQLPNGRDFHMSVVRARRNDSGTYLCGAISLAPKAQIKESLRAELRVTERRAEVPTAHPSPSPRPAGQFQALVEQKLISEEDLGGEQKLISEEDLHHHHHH
# T2: monkey PD-1 with mFc (monkey (MfPD-1))
# T2 construct: also called monkey PD-1-mFc; monkey PD-1 dimer
# T2 chain: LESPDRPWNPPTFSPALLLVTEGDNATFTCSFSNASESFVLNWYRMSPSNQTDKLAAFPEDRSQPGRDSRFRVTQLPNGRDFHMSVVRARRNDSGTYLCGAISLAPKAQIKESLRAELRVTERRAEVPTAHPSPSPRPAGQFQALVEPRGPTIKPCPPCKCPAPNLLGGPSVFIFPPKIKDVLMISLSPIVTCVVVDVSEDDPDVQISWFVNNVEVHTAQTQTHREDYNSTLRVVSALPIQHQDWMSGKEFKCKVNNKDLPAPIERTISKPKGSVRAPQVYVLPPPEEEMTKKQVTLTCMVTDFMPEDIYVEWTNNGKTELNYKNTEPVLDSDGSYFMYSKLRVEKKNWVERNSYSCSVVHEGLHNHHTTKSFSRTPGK
# What was measured:
# [1] = molecular target: T3, recombinant human PD-1 expressed with a C-terminal myc-myc-hexahistidine tag (human); experiment: SPR (Biacore), mAb captured, hPD-1-MMH injected, 25 C;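 further: rate constants obtained by fitting sensorgrams to a 1:1 binding model, KD derived as kd/ka and half-life as ln2/(60·kd) in minutes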
# T3 construct: also called hPD-1-MMH; human PD-1-MMH
# [2] = molecular target: T4, recombinant human PD-1 dimer expressed with a C-terminal mouse IgG2a Fc tag (human); experiment: competition ELISA: blocking 1.5 nM hPD-1-mFc binding to coated hPD-L1-hFc; end tied to H4xH9048P2 by Table 12
# T4 construct: also called hPD-1-mFc; human PD-1-mFc
# [3] = molecular target: T5, full length human PD-1 on HEK293 cells (HEK293/hPD-1) (human, UniProt Q15116 25-288); experiment: FACS, dose titration on HEK293/hPD-1 cells; end tied to H1M7799N by Table 20
# T5 construct: also called human PD-1 expressing cells
# [4] = molecular target: T6, dimeric biotinylated human PD-1 protein, human PD-1 extracellular domain with a C-terminal human Fc tag (human, biotinylated (sites not given)); experiment: competition ELISA: blocking 200 pM biot-hPD-1-hFc binding to coated hPD-L1-mFc; end tied to H1M7799N by Table 13 (below theoretical bottom 100 pM)
# T6 construct: also called biot-hPD-1-hFc
# [5] = molecular target: T1, recombinant cynomolgus monkey PD-1 …; experiment: SPR (Biacore), MfPD-1-MMH, 25 C; end of range tied to H4H9057P2 by Table 8
# [6] = molecular target: T4, recombinant human PD-1 dimer expressed …; experiment: competition ELISA: blocking 1.5 nM hPD-1-mFc binding to coated hPD-L1-hFc; end tied to H4H9057P2 by Table 12 (below theoretical bottom 0.75 nM)
# [7] = molecular target: T5, full length human PD-1 on HEK293 cells …; experiment: FACS, dose titration on HEK293/hPD-1 cells; end tied to H2aM7796N by Table 21
# [8] = molecular target: T6, dimeric biotinylated human PD-1 …; experiment: competition ELISA: blocking 200 pM biot-hPD-1-hFc binding to coated hPD-L1-mFc; end tied to H2aM7796N (and H4xH9008P) by Table 13
# [9] = molecular target: T3, recombinant human PD-1 expressed with a …; experiment: SPR (Biacore), hPD-1-MMH, 37 C; end of range tied to H2aM7796N by Table 5
# [10] = molecular target: T3, recombinant human PD-1 expressed with a …; experiment: SPR (Biacore), hPD-1-MMH, 37 C; end of range tied to H2aM7798N by Table 5
# [11] = molecular target: PD-1 chimera: extracellular domain of human PD-1 with trans-membrane and cytoplasmic domains of human CD300a, … (human, UniProt Q9UGN4 181-299, limits assumed); experiment: cell-based or functional assay
# [12] = molecular target: T1, recombinant cynomolgus monkey PD-1 …; experiment: SPR (Biacore), MfPD-1-MMH, 37 C; end of range tied to H2aM7798N by Table 9
# [13] = molecular target: T7, human PD-1 dimer (human PD-1-mFc or human PD-1-hFc) (human, UniProt Q15116 25-170); experiment: SPR (Biacore), hPD-1 dimer (mFc or hFc), 25 C; end of range tied to H2aM7798N by Table 6
# T7 construct: also called hPD-1 dimer proteins
# [14] = molecular target: T4, recombinant human PD-1 dimer expressed …; experiment: competition ELISA: blocking 100 pM hPD-1-mFc binding to coated hPD-L2-hFc; end tied to H2aM7798N by Table 14
# monkey PD-1 with mFc = molecular target: T2, monkey PD-1 with mFc; experiment: SPR (Biacore), monkey PD-1-mFc, 25 C; end of range tied to H4H7798N by Table 10
# [15] = molecular target: T5, full length human PD-1 on HEK293 cells …; experiment: FACS, dose titration on HEK293/hPD-1 cells; end tied to H4H7798N by Table 21
Binder,Kd [1],koff [1],kon [1],t½ [1],IC50 [2],EC50 [3],IC50 [4],Kd [5],IC50 [6],EC50 [7],IC50 [8],Kd [9],Kd [10],"Emax, AP1-Luc signal at 100 nM antibody (% of signal without anti-PD-1 antibody) [11]",Kd [12],Kd [13],IC50 [14],Kd (monkey PD-1 with mFc),EC50 [15]
"H4xH9048P2 (antibody, human IgG4, V domains shown, H4xH: modified human IgG4 Fc) VH: QVQLVQSGAEVKRPGSSVKVSCKVSGVTFRNFAIIWVRQAPGQGLEWMGGIIPFFSAANYAQSFQGRVTITPDESTSTAFMELASLRSEDTAVYYCAREGERGHTYGFDYWGQGTLVTVSS VL: not shown",8.95 nM,0.00123 s⁻¹,137000 M⁻¹ s⁻¹,9.4 min,3.3 nM,,,,,,,,,,,,,,
"H1M7799N (antibody, mouse IgG1, V domains shown, Human variable domains, mouse IgG1 Fc) VH: EVQLVESGGGLVQPGGSLRLSCAASGFTVSNNYMSWVRQAPGKGLEWVSVIYSGGFTYYTDSVKGRFTISRHNSKNTLYLQMNSLRAEDTAVYYCARYYYDTSDYWTFFDYWGQGTLVTVSS VL: EIVMTQSPATLSVSPGERATLSCRASQSVSSNLAWYQQKPGQAPRLLIYGASTRATGIPARFSGSGSGTEFTLTISSLQSGDFAVYYCQQYNNWPLTFGGGTKVEIN",244 nM,0.0123 s⁻¹,50400 M⁻¹ s⁻¹,0.9 min,,0.0332 nM,0.059 nM,,,,,,,,,,,,
"H4H9057P2 (antibody, human IgG4, V domains shown, Human IgG4 Fc (H4H prefix)) VH: EVQLVESGGGLVQSGRSLRLSCAASGFTFDDYAMHWVRQPPGKGLEWVSGINWNRGRTGYADSVKGRFTISRDNAKNSLYLQMNDLRVEDTALYYCAKAEQWLDEGYFDYWGQGTLVTVSS VL: not shown",291 nM,0.0134 s⁻¹,46000 M⁻¹ s⁻¹,0.9 min,,,,551 nM,0.19 nM,,,,,,,,,,
"H2aM7796N (antibody, mouse IgG2a, V domains shown, Human variable domains, mouse IgG2a Fc; also called H2M7796N) VH: QVQLVESGGGVVQPGRSLRLSCAASGFTFSSYGMHWVRQAPGKGLEWVAIIWSDGDSEYNLDSVKGRFTISRDNSKNTLYLQMNSLRVEDSAVYYCARDRDLEDIWGQGTMVTVSS VL: DIQMTQSPSSLSASVGDRVTITCRASQGIRNDLGWYQQKPGKAPKRLIYAASNLQSGVPSRFSGSGSGTEFTLTISSLQPEDFATYYCLQHNSYPLTFGGGTKVEIK",286 nM,0.00193 s⁻¹,6730 M⁻¹ s⁻¹,6 min,,,,,,4.81 nM,1.3 nM,1510 nM,,,,,,,

# Binders with a lower Kd [1], results first:
Kd [1],koff [1],kon [1],t½ [1],IC50 [2],EC50 [3],IC50 [4],Kd [5],IC50 [6],EC50 [7],IC50 [8],Kd [9],Kd [10],"Emax, AP1-Luc signal at 100 nM antibody (% of signal without anti-PD-1 antibody) [11]",Kd [12],Kd [13],IC50 [14],Kd (monkey PD-1 with mFc),EC50 [15],Binder
2.31 nM,0.000306 s⁻¹,132000 M⁻¹ s⁻¹,38 min,,,,,,,,,3.79 nM,239%,7 nM,0.0655 nM,0.13 nM,,,"H2aM7798N (antibody, mouse IgG2a, V domains shown, Human variable domains, mouse IgG2a Fc; also called H2M7798N) VH: EVQLLESGGVLVQPGGSLRLSCAASGFTFSNFGMTWVRQAPGKGLEWVSGISGGGRDTYFADSVKGRFTISRDNSKNTLYLQMNSLKGEDTAVYYCVKWGNIYFDYWGQGTLVTVSS VL: DIQMTQSPSSLSASVGDSITITCRASLSINTFLNWYQQKPGKAPNLLIYAASSLHGGVPSRFSGSGSGTDFTLTIRTLQPEDFATYYCQQSSNTPFTFGPGTVVDFR"
3.01 nM,0.000443 s⁻¹,147000 M⁻¹ s⁻¹,26 min,,,,,,,,,,343%,,,,0.137 nM,0.509 nM,"H4H7798N (antibody, human IgG4 S228P, kappa, V domains shown) VH: EVQLLESGGVLVQPGGSLRLSCAASGFTFSNFGMTWVRQAPGKGLEWVSGISGGGRDTYFADSVKGRFTISRDNSKNTLYLQMNSLKGEDTAVYYCVKWGNIYFDYWGQGTLVTVSS VL: DIQMTQSPSSLSASVGDSITITCRASLSINTFLNWYQQKPGKAPNLLIYAASSLHGGVPSRFSGSGSGTDFTLTIRTLQPEDFATYYCQQSSNTPFTFGPGTVVDFRR"
